Experimental data: paper doi:10.1101/2020.07.31.231746

Legend:
Experiment in all cases: flow cytometry on cells
[1] = target: best-characterized ACE2(614) mutant from sort 3.1, yeast surface-displayed (human) (UniProt Q9BYF1)
[2] = target: Y353, yeast surface-displayed ACE2(614) variant from sort 4 (human) (UniProt Q9BYF1)
[3] = target: Y373, yeast surface-displayed ACE2(614) variant from sort 5 (human) (UniProt Q9BYF1)

Substance: SARS-CoV-2 spike RBD monomer (328-533), 8XHis tag and AviTag, biotinylated (from UniProt P0DTC2 328-533) (domain or fragment)
- Kd [1]: 0.52 nM
- Kd [2]: 0.19 nM
- Kd [3]: 0.12 nM
